# Patent US20100120124A1 (CONSEJO SUPERIOR DE INVESTIGACIONES CIENTIFICAS, published 2010)
# T1: α-amylase (pig pancreatic enzyme α-amylase, Sigma) (pig, UniProt P00690 16-511)
# T1 sequence: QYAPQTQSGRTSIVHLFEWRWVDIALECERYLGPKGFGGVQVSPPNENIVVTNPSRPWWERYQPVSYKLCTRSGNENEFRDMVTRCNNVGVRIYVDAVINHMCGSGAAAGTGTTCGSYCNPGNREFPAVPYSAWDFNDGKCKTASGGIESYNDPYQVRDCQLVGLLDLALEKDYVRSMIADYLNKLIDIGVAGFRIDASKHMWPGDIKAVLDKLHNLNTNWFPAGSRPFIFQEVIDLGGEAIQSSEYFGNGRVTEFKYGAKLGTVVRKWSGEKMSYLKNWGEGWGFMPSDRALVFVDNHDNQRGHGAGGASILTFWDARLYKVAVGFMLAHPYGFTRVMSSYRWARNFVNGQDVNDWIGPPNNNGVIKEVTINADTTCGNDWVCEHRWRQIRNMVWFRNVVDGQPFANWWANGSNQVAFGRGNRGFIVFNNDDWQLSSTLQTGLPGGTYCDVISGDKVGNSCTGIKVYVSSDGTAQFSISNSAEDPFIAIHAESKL
# Assays:
# [1] = target: T2, bovine seroalbumin (BSA, Roche) (bovine, UniProt P02769 25-607); experiment: ELISA, supernatant of EPEC culture on coated antigen, anti-E-tag-POD
# T2 construct: also called bovine albumin
# T2 sequence (P02769 25-607 limits assumed): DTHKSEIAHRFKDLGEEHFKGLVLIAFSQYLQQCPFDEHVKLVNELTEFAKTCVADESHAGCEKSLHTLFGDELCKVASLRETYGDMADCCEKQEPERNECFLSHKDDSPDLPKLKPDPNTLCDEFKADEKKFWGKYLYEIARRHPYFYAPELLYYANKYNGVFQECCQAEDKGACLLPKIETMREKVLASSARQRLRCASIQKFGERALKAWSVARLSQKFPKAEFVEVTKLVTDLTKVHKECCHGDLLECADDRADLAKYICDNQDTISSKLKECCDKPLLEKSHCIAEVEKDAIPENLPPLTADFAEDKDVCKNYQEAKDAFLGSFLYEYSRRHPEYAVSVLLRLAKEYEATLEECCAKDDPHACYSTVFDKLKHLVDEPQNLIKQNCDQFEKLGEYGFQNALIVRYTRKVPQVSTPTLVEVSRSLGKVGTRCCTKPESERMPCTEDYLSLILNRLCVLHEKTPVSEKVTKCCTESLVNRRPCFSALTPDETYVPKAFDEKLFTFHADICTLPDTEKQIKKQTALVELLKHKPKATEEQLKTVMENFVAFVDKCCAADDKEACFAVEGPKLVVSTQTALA
# [2] = target: T1, α-amylase (pig pancreatic enzyme …); experiment: as above
Binder,binding result [1],binding result [2]
"fusion antibody EspF-Vamy (EspF20 signal fused to camel VHH anti-amylase with C-terminal 6xhis and E-tag) (VHH, also called EspF20-Vamy; product of plasmid pEspFVamy) VHH: QVQLVESWGGSVQAGGSLRLSCTAPGFTSNSCRMDWYRQAAGKQREWVSSISTDGRTSYADSVKGRFTISKDKAKDTVYLQMNSLKPEDTAIYYCAVRTNGYRPQSHEFRYWGPGTQVTVSS",no binding,binds
"fusion antibody EspF-Vgfp (EspF20 signal fused to camel VHH anti-GFP with C-terminal 6xhis and E-tag) (VHH, also called product of plasmid pEspFVgfp) VHH: QVQLVESGGALVQPGGSLRLSCAASGFPVNRYSMRWYRQAPGKEREWVAGMSSAGDRSSYEDSVKGRFTISRDDARNTVYLQMNSLKPEDTAVYYCNVNVGFEYWGQGTQVTVSS",no binding,no binding
